# Entries after “also recorded” stand apart in the source; their conditions may differ.
# B1: ARA67: AR N-terminal interacting protein of 585 amino acids (SEQ ID NO:1), matches PAT1; functions as a repressor of AR (protein)
# chain: MAAVELEWIPETLYNTAISAVVDNYIRSRRDIRSLPENIQFDVYYKLYQQGRLCQLGSEFCELEVFAKVLRALDKRHLLHHCFQALMDHGVKVASVLAYSFSRRCSYIAESDAAVKEKAIQVGFVLGGFLSDAGWYSDAEKVFLSCLQLCTLHDEMLHWFRAVECCVRLLHVRNGNCKYHLGEETFKLAQTYMDKLSKHGQQANKAALYGELCALLFAKSHYDEAYKWCIEAMKEITAGLPVKVVVDVLRQASKACVVKREFKKAEQLIKHAVYLARDHFGSKHPKYSDTLLDYGFYLLNVDNICQSVAIYQAALDIRQSVFGGKNIHVATAHEDLAYSSYVHQYSSGKFDNALFHAERAIGIITHILPEDHLLLASSKRVKALILEEIAIDCHNKETEQRLLQEAHDLHLSSLQLAKKAFGEFNVQTAKHYGNLGRLYQSMRKFKEAEEMHIKAIQIKEQLLGQEDYEVALSVGHLASLYNYDMNQYENAEKLYLRSIAIGKKLFGEGYSGLEYDYRGLIKLYNSIGNYEKVFEYHNVLSNWNRLRDRQYSVTDALEDVSTSPQSTEEVVQSFLISQNVEGPSC
# How the values were obtained:
# [1] = tested on: PSA expression in LNCaP cells; assay: DHT induced PSA expression in LNCaP cells transfected with ARA67 (Western blot); assay type: cell-based, human; conditions: pSG5-ARA67 transfected
# Method: H1299 and COS-1 cells were maintained in Dulbecco's modified Eagle's medium (DMEM) (Life Technologies, Inc.) supplemented with 10% heat inactivated fetal bovine serum (FBS). LNCap cells were maintained in RPMI 1640 supplemented with […]. All media contain 100 units penicillin, 100 μg/ml streptomycin and 2 mM L-glutamine. Cells were seeded to a density of 50-60% confluency for transfection. In transfections where H1299 and COS-1 cells were used, the calcium phosphate precipitation method was used as described (Pan H J, et al. 1999. Endocrine 11:321-327) unless otherwise noted. […] In other reporter gene assays, where ligand treatment was required, cell culture media were changed to DMEM containing 10% charcoal-dextran-stripped FBS (CD-FBS) 2 h before transfection. After 16-18 h transfection, cells were treated with medium containing either vehicle or ligands for another 20-24 h and then cells were harvested. With LNCap cells transfection, the cells were treated with fresh RPMI 1640 containing 10% CD-FBS before transfection with SuperFect performed according to the manufacturer's protocol (Qiagen). After transfection, cells were allowed to recover in fresh RPMI 1640 containing 10% CD-FBS for 8-12 h, and then treated with either vehicle or ligands for another 20-24 h before harvesting. Each experiment was repeated at least three times. […]
# AR N/C interaction = assay: AR N/C interaction, mammalian two-hybrid assay in COS-1 cells; assay type: cell-based, human; conditions: 10 nM DHT
# Sequence of AR N/C interaction (P10275 1-559 partner limits assumed, one chain of several): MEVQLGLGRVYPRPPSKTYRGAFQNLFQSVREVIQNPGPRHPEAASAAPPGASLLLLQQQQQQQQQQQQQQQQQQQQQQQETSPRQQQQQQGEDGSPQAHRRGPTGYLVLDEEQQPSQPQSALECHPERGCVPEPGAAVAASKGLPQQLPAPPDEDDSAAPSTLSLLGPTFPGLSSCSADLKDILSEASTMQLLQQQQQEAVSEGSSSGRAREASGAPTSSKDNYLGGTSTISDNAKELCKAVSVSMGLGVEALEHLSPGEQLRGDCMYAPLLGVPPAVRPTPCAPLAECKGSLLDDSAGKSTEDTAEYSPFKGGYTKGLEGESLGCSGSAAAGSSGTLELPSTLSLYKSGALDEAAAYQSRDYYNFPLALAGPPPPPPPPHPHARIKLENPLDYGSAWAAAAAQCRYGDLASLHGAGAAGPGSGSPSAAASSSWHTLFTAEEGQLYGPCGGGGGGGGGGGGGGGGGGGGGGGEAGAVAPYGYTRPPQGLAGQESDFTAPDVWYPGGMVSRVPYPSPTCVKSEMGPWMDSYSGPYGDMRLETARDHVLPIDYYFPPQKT
# Method: (§1) H1299 and COS-1 cells were maintained in Dulbecco's modified Eagle's medium (DMEM) (Life Technologies, Inc.) supplemented with 10% heat inactivated fetal bovine serum (FBS). LNCap cells were maintained in RPMI 1640 supplemented with […]. All media contain 100 units penicillin, 100 μg/ml streptomycin and 2 mM L-glutamine. Cells were seeded to a density of 50-60% confluency for transfection. In transfections where H1299 and COS-1 cells were used, the calcium phosphate precipitation method was used as described (Pan H J, et al. 1999. Endocrine 11:321-327) unless otherwise noted. […] In other reporter gene assays, where ligand treatment was required, cell culture media were changed to DMEM containing 10% charcoal-dextran-stripped FBS (CD-FBS) 2 h before transfection. After 16-18 h transfection, cells were treated with medium containing either vehicle or ligands for another 20-24 h and then cells were harvested. With LNCap cells transfection, the cells were treated with fresh RPMI 1640 containing 10% CD-FBS before transfection with SuperFect performed according to the manufacturer's protocol (Qiagen). After transfection, cells were allowed to recover in fresh RPMI 1640 containing 10% CD-FBS for 8-12 h, and then treated with either vehicle or ligands for another 20-24 h before harvesting. Each experiment was repeated at least three times.
# ER = ER transactivation reporter gene assay in H1299 cells with ARA67; assay type: cell-based; conditions: 500 ng pSG5-ARA67, ERE-Luc, cognate ligand
# Method: as §1
# microtubules = conditions: in the presence of Mg-ATP; cited from earlier work
# AR = AR transactivation reporter gene assay in H1299 cells with ARA67; assay type: cell-based, human
# Method: as §1
# AR nuclear translocation = molecular target: T1, AR nuclear translocation (Homo sapiens, UniProt P10275, DEL79-80/DUP473-473); assay: Subcellular distribution of AR in COS-1 cells (immunofluorescence staining, subcellular fractionation); assay type: cell-based
# T1 construct: expressed in transfected cells; host or cells: COS-1
# T1 sequence (P10275 with tags, fused parts or gaps DEL79-80/DUP473-473): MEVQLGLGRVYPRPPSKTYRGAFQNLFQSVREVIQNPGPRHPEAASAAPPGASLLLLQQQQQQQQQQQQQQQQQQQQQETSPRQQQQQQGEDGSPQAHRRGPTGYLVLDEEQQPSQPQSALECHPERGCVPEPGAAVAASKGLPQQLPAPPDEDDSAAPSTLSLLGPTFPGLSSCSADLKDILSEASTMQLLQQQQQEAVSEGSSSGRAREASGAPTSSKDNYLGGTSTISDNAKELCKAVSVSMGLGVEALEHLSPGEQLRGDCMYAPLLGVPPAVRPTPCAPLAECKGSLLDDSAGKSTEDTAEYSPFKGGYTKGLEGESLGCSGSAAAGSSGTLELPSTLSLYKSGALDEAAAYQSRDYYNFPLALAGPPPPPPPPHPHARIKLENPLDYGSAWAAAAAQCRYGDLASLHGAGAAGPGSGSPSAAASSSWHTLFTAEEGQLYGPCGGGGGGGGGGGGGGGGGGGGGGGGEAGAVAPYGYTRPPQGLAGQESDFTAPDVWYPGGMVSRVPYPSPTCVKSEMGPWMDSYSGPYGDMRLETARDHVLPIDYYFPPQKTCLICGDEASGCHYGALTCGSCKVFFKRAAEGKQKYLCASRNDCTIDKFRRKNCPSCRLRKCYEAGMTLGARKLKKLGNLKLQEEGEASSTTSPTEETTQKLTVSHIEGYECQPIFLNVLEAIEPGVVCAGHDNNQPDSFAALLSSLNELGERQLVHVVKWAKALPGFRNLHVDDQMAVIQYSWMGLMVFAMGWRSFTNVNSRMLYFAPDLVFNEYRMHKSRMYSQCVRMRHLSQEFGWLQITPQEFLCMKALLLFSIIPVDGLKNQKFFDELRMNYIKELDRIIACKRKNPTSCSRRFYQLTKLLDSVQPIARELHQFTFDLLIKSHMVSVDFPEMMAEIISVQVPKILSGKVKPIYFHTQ
# Method: COS-1 cells were seeded on two-well Lab Tek Chamber slides (Nalge) in DMEM containing 10% CD-FBS 18 h before transfection. DNA was transfected by using FuGENE 6 Transfection Reagent (Boehringer Mannheim). After transfection, cells were treated with either 10 nM DHT or vehicle for 12 h. Then cells were fixed with fixation solution (3% paraformaldehyde and 10% sucrose in PBS) for 20 min on ice, followed by permeabilization with methanol for 10 min on ice. Slides were washed and blocked with 2% BSA in PBS for 15 min at room temperature. Then the cells were stained with 1 μg/ml rabbit polyclonal anti-AR antibody (NH27) and 1 μg/ml mouse monoclonal anti-His antibody (Santa Cruz Biotechnology) sequentially at room temperature for 1 h each. After each first Ab incubation, cells were washed and incubated with TexRed-conjugated goat anti-rabbit IgG and FITC-conjugated goat anti-mouse IgG (ICN), respectively. Stained slides were washed and mounted (Vectashield; Vector Laboratories). Fluorescence images were photographed under 400-fold magnification with a confocal microscope.
# To prepare cytosolic and nuclear fractions of cells, cell monolayers were harvested with ice-cold PBS and pelleted. Cold buffer A (10 mM HEPES-KOH/pH 7.9 at 4° C., 1.5 mM MgCl2, 10 mM KCl, 0.5 mM dithiothreitol, 0.2 mM PMSF) equal to 5 times cell volume was used to resuspend the cells. […]
molecule,measurement,setting,value
B1,DHT induced PSA expression,[1],decreased
same,DHT promoted AR N/C interaction,AR N/C interaction,slightly enhanced
same,effect on ER transactivation,ER,nearly unaffected; also recorded: little effect
same,enhancement of microtubule binding,microtubules,5-10 fold
same,repression of AR activity relative to PR activity,AR,approximately 2.5 times
same,suppression on AR activity,"AR; H1299 cells, 500 ng pSG5-ARA67, MMTV-Luc, cognate ligand",50%
same,DHT-induced AR transactivation,"AR; H1299 cells, MMTV-Luc and ARE4-Luc, 10 nM DHT",suppressed
same,ARA70N enhanced AR transactivation,"AR; H1299 cells, PSA-Luc and ARE4-Luc, 10 nM DHT",repressed dose-dependently
same,AR level in nuclear fraction,"AR nuclear translocation; Western blot, after DHT treatment",decreased
same,nuclear translocation of AR,"AR nuclear translocation; immunofluorescence staining, DHT treatment",block the nuclear translocation

# From patent US20080050387A1, “Non-Androgen Dependent Roles for Androgen Receptor and Non-Androgen Related Inhibitors of Androgen Receptor” (priority 2003, published 2008)
